Results reported in US20250051456A1 (Hoffmann-La Roche, published 2025).

B1: HLA-G-0041 (antibody, V domains shown)
VH: EVQLLESGGGLVQPGGSLRLSCAASGFTFSTYGMSWVRQAPGKGLEWVSVISGGGVSTYYADSVKGRFTISRDNSKNTLYLQMNRLRAEDTAVYYCAKDGSYNYGYGDYFDYWGQGTLVTVSS
VL: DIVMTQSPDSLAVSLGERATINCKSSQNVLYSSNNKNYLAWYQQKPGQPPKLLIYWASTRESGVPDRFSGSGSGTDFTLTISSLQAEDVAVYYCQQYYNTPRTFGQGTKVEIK
B2: HLA-G-0090 (antibody, V domains shown)
VH: QVQLQQSGPGLLKPSQTLSLTCAISGDSVSSNRAAWNWIRQSPSRGLEWLGRTYYRSKWYNDYAVSVQGRITLIPDTSKNQFSLRLNSVTPEDTAVYYCASVRAVAPFDYWGQGVLVTVSS
VL: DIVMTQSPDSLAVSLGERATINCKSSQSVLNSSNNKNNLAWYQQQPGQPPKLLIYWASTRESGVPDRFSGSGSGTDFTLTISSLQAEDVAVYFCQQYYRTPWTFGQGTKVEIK
B3: HLA-G-0031 (antibody, V domains shown)
VH: QVKLMQSGAALVKPGTSVKMSCNASGYTFTDYWVSWVKQSHGKRLEWVGEISPNSGASNFDENFKDKATLTVDKSTSTAYMELSRLTSEDSAIYYCTRSSHGSFRWFAYWGQGTLVTVSS
VL: AIVLNQSPSSIVASQGEKVTITCRASSSVSSNHLHWYQQKPGAFPKFVIYSTSQRASGIPSRFSGSGSGTSYSFTISRVEAEDVATYYCQQGSSNPYTFGAGTKLELK

Columns and labels:
[1] = biological target: T1, monomeric human HLA-G β2M MHC class I complex (soluble recombinant wt HLA-G) (human); assay: ELISA, biotinylated wt HLA-G monomer on streptavidin plate; the 6th table ELISA series (monomer, dimer, trimer), separate from the 7th table
T1 construct: also called HLA-G-0003; wt HLA-G (monomer)
Experimental: The above table summarizes the binding of different rat anti-human HLA-G monoclonal antibodies, derived from wt protein IMS. Shown are the relative EC50 values [ng/ml] of the respective binding to rec. wt monomeric, dimeric and trimeric HLA-G proteins as assessed by ELISA. The ELISA was set up by coating the biotinylated wt HLA-G antigen to strepdavidin plates. After incubation and washing steps, the respective antibodies were bound in a concentration range from […] in 1:2 dilution steps. Detection of bound antibodies was carried out by anti-Fc-antibody-POD conjugates. EC50 values were determined from the resulting binding curves at the antibody concentrations generating the half-maximal signal. In case of the non-biotinylated HLA-G dimer and trimer antigens, immobilization was carried out by random coating on assay plates.

[2] = biological target: human HLA-G expressed on cells (JEG3 naturally; Skov3 and PA-TU-8902 transfectants) (human); assay: cell-based or functional assay

| Binder | EC50 [1] | % TNF release (restoration), different donor, JEG-3 wt co-culture; antibody 0.16 µg/ml [2] | % TNF release (restoration), different donor, JEG-3 wt co-culture; antibody 0.63 µg/ml [2] | % TNF release (restoration), different donor, JEG-3 wt co-culture; antibody 2.5 µg/ml [2] | % TNF release (restoration), different donor, JEG-3 wt co-culture; antibody 10 µg/ml [2] |
| --- | --- | --- | --- | --- | --- |
| B1 | 4.95 ng/mL | 44% | 66% | 59% | 40% |
| B2 | – | 198% | 219% | 233% | 221% |
| B3 | – | 14% | 44% | 67% | 74% |
